From patent publication US20130071400A1, “LINGO binding molecules and Pharmaceutical Use Thereof” (NOVARTIS AG, priority 2006, published 2013)

Tests used:
[1] = target: T1, cell surface LINGO-1 in CHO-K1-hLINGO-1 cells (Homo sapiens, UniProt Q96FE5); test: Downregulation of cell surface LINGO-1 (anti-V5 detection, TMB-ELISA); type: cell-based; conditions: 100 nM IgG4, 24 hrs at 37° C., CHO-K1-hLINGO-1 cells (FIG. 6A)
T1 construct: expressed in transfected cells
T1 sequence (Q96FE5 34-614 isoform Q96FE5-2): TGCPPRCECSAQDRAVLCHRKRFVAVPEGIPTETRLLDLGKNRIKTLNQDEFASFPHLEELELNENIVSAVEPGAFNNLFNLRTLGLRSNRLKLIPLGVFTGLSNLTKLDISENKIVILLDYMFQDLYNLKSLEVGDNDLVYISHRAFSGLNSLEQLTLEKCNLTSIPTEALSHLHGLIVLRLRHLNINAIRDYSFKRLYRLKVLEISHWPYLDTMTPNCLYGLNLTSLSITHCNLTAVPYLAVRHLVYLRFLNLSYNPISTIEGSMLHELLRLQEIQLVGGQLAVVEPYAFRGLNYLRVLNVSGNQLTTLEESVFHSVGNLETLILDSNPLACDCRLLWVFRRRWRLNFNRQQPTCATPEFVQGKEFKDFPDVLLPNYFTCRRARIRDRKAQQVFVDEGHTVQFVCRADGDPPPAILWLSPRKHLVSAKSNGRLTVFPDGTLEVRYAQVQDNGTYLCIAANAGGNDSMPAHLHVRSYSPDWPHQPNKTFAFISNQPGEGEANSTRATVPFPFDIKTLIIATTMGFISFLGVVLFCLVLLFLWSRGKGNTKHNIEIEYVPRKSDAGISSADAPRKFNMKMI
Description: A) Untransfected CHO-K1 or CHO-K1-hLINGO-1 cells are incubated at 37° C. for 24 hrs with 100 nM 4784, 4785 and 3207 and LINGO-1 detected at the cell surface by a further incubation at room temperature for 30 min with the anti-V5 antibody. The cells are fixed with 4% PFA, blocked with BSA and bound anti-V5 antibody detected using an anti-mouse-IgG (Fc specific)-POD conjugate that is subsequently developed using a 1-Step™ Turbo TMB ELISA kit. The absorbance at 450 nm is taken as a measure of the amount of LINGO-1 at the cell surface (mean of triplicates±STD). A very low level of anti-V5 antibody binding is observed to untransfected CHO-K1 cells. Incubation of CHO-K1-hLINGO-1 cells with anti-LINGO-1 antibodies but not the control IgG4 3207 result in a significant reduction in the amount of LINGO-1 at the cell surface **p<0.01, one-way ANOVA with a Holm-Sidak comparison to the absorbance following incubation with the control IgG4 3207.
To determine the effect of anti-LINGO-1 antibodies on the amount of cell surface LINGO-1, untransfected CHO-K1 or CHO-K1-hLINGO-1 cells (see Example 1) are incubated at 37° C. for 24 hrs with 100 nM 4784, 4785 or 3207 and cell surface LINGO-1 is subsequently detected with an anti-V5 antibody followed by an anti-mouse IgG (Fc specific)-POD conjugate developed with a 1-Step™ Turbo TMB-ELISA kit (Pierce) (FIG. 6A).

[2] = test system: freshly isolated rat OPCs; test: Primary oligodendrocyte differentiation assay; type: cell-based; conditions: 100 nM IgG4, 3 days in DMEM/CNTF/T3 medium; three independent experiments (FIG. 5)
Description: A) Freshly isolated OPCs are treated with 100 nM 4784, 4785 or control IgG4 3207 for 3 days in DMEM/CNTF/T3 medium followed by staining with the anti-04 antibody to visualise immature and mature oligodendrocytes (larger, more diffuse labeling) and the nucleic acid dye DAPI (4′,6-diamidin-2′-phenyl-indol-dihydrochloride) to visualise cell nuclei (smaller circular dots). Oligodendrocytes bearing highly arborised and extended processes and myelin sheet-like structures are considered to have a mature morphology and are indicated with white arrows. Anti-LINGO-1 antibody treatment results in an increase in the proportion of O4-positive cells with a mature morphology whereas treatment with control IgG4 3207 has no effect.
B) The proportion of total (left graph) and mature (right graph) oligodendrocytes is quantified in three independent experiments (1, 2, 3). The left bar graph depicts the percentage of DAPI-stained nuclei associated with O4-staining and the right bar graph depicts the percentage of O4-positive cells with a mature morphology (mean of triplicates+STD). […]
Enriched populations of OPCs are isolated from OFA P3 rats. […] To assess the purity of the cultures with respect to the oligodendrocyte lineage, the percentage of cells that are stained with the anti-04 antibody is quantified after 7 days of culture in SATO medium. […]

B1: IgG4 4784: monoclonal human anti-LINGO-1 IgG4 antibody; VL SEQ ID NO: 4, VH SEQ ID NO: 5 (antibody, V domains shown)
VH: QVQLKESGPALVKPTQTLTLTCTFSGFSLSSSGVGVGWIRQPPGKALEWLAHIGSDDDKYYSTSLKTRLTISKDTSKNQVVLTMTNMDPVDTATYYCARNQQYGDGYPGYFDYWGQGTLVTVSS
VL: DIELTQPPSVSVAPGQTARISCSGDNIGNYYVYWYQQKPGQAPVLVIYEDTNRPSGIPERFSGSNSGNTATLTISGTQAEDEADYYCQSYDNLHEQVFGGGTKLTVLG
modifications: IgG4; 4784 VH; 4784 VL
- amount of cell surface LINGO-1 (absorbance at 450 nm) [1]: significantly downregulate
- proportion of oligodendrocytes (O4-positive cells) with a mature morphology [2]: significantly increase

B2: IgG4 4785: monoclonal human anti-LINGO-1 IgG4 antibody; VL SEQ ID NO: 6, VH SEQ ID NO: 7 (antibody, V domains shown)
VH: QVQLQQSGPGLVKPSQTLSLTCAISGDSVSDNSAAWSWIRQSPGRGLEWLGLIYLRSKWDNDYAVSVKSRITINPDTSKNQFSLQLNSVTPEDTAVYYCARTGRADEFDVWGQGTLVTVSS
VL: DIVLTQPPSVSGAPGQRVTISCSGSSSNIGNNYVSWYQQLPGTAPKLLISRNSKRPSGVPDRFSGSKSGTSASLAITGLQSEDEADYYCSTYDTFSIVFGGGTKLTVLG
modifications: IgG4; 4785 VH; 4785 VL
- amount of cell surface LINGO-1 (absorbance at 450 nm) [1]: significantly downregulate
- proportion of oligodendrocytes (O4-positive cells) with a mature morphology [2]: significantly increase
